Assay results as given in publication PMC8980629, “c-Abl kinase-mediated phosphorylation of γ-tubulin promotes γ-tubulin ring complexes assembly and microtubule nucleation” (The Journal of Biological Chemistry, 2022).

Target: T1, Flag-γ-tubulin (human, UniProt P23258 1-451)
T1 construct: γ-tubulin (tubg1), full-length cDNA amplified from an MCF-7 cDNA library, in a pcDNA3.0-based vector; also called wild-type Flag-γ-tubulin; source: HEK293T, transfected, in lysate; anti-Flag immunoprecipitated and resolved by SDS-PAGE for the far-Western; not shown: Flag, N-terminal, kept
T1 sequence (P23258 whole entry): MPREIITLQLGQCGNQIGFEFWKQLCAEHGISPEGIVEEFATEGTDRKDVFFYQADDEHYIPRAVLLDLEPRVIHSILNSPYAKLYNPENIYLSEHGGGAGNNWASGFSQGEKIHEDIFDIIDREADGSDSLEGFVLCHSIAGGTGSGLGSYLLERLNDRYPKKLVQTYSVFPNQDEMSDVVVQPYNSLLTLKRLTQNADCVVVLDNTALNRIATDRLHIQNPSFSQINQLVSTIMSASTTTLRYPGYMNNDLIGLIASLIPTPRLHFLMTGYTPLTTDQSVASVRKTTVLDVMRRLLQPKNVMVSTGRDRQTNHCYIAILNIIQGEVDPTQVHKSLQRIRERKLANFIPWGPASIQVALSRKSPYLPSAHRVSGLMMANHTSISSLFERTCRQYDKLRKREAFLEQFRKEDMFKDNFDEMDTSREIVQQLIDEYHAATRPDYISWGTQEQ
Test: far-Western, overlay or dot blot; anti-Flag immunoprecipitates from HEK293T resolved by SDS-PAGE and blotted onto PVDF; membrane incubated with purified GST or GST fusion protein 2 h at room temperature; probed with anti-GST
Details: both partners purified

B1: GST-c-Abl SH2 (domain or fragment, UniProt P00519 127-217, looked up)
chain: WYHGPVSRNAAEYLLSSGINGSFLVRESESSPGQRSISLRYEGRVYHYRINTASDGKLYVSSESRFNTLAELVHHHSTVADGLITTLHYPA
notes: SH2 domain of c-Abl; source: purified GST fusion protein; not shown: GST, N-terminal, kept
B1: binds.
